Where “and” joins values, the source holds several entries; their conditions need not be identical. Equal entries are not always repeated. Values belong to the binder of their own block, whether it stands above or below them.
Columns and labels:
[1] = target: T1, human PRLR on the cell surface (T47D human breast cancer cells; BAF3-huPRLR cells) (human, UniProt P16471 25-622); test: flow cytometry on T47D cells
T1 construct: whole, on cells; Used for both T47D (endogenous) and BAF3-huPRLR (stably overexpressing) cells; also called PRLR antigen on the surface of the T47D cell
T1 sequence (looked up): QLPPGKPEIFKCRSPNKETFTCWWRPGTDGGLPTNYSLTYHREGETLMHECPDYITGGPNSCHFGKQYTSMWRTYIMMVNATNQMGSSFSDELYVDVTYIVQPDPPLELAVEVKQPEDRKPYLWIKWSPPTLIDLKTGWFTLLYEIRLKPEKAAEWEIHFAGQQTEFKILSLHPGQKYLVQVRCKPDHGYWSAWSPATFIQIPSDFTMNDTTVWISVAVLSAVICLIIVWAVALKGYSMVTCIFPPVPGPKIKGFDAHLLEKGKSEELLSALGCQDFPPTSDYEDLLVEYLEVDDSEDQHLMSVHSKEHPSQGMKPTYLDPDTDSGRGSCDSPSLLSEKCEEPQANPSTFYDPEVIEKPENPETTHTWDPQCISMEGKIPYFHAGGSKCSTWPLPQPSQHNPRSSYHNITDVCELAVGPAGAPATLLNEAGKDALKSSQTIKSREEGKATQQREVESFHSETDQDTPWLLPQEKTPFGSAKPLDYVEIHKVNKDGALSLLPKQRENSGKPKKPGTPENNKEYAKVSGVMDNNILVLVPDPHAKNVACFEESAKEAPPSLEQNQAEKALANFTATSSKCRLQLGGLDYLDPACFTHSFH
Description: In this experiment, a human mammary ductal carcinoma cell T47D was used as a target cell, and SPGA02-260 was used as a primary antibody. SPGA02-260 was serially diluted from 20 μg/mL in six gradients according to a 6-fold gradient. An antibody diluted with a 100 μL gradient and 100 μL of a T47D cell were incubated for 30 min at room temperature (The cell was suspended in 100 μL of an RPMI-1640 serum-free medium (purchased from Gibco, item No.: 61870036). The maximum working concentration of a monoclonal antibody was 10 μg/mL). The cell was washed twice with PBS to remove unbound SPGA02-260. Then, the cell was incubated with 50 μL of anti-murine fluorescent secondary antibody containing 5 μg/mL Alexa Fluor 488 label (purchased from Thermo and Invitrogen, item No.: A11001) at 4° C. for 40 min under light protection. The cell was washed twice with PBS to remove an unbound secondary antibody. Finally, the cell was resuspended in 100 μL of PBS. The binding affinity of SPGA02-260 to the cells was determined by a flow cytometry (purchased from Beckman, model: CytoFLEX). Data obtained were fitted and analyzed by GraphPad Prism6 software.

[2] = target: T2, recombinant human PRLR-ECD protein (Acro, item No. PRR-H52Ha) (human, UniProt P16471 25-234); test: indirect ELISA, coated human PRLR-ECD
T2 construct: Bought protein; also called PRLR-His
T2 sequence: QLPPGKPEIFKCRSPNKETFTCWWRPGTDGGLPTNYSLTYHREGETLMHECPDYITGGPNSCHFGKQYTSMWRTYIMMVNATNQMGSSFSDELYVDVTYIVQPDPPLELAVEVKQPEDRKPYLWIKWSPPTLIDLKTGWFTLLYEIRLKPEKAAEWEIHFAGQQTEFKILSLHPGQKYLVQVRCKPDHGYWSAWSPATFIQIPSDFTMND

[3] = target: T3, mouse PRLR protein (Beijing Sinobiological, item No. 50457-M08H) (mouse, UniProt Q08501 20-229); test: indirect ELISA, coated mouse PRLR protein
T3 construct: Bought; also called murine-derived PRLR-ECD
T3 sequence (looked up): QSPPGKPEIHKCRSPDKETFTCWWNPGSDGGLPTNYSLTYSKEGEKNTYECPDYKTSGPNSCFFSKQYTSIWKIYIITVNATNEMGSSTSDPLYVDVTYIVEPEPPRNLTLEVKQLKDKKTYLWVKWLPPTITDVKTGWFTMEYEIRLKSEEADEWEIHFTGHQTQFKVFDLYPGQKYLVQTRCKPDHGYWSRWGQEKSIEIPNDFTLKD
Description: A mouse PRLR protein (purchased from Beijing Sinobiological Company, item No. 50457-M08H), i.e., mouse PRLR, was coated in a 96-well ELISA plate according to 0.5 μg/well. The cross-reactivity of SPGA02-ch18, and SPGA02-ch260 to the mouse PRLR was determined. Other specific experimental methods were referred to Embodiment 8.

[4] = target: T4, PRLR-ECD Fibronectin type-III 2 polypeptide 7 (189-208) (human, N-terminal biotin (bio-)); test: peptide ELISA
T4 peptide: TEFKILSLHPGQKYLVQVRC

[5] = target: T2, recombinant human PRLR-ECD protein …; test: indirect ELISA, coated human PRLR-ECD 0.5 µg/mL
Description: An indirect enzyme-linked immunosorbent assay was used to determine the binding ability of an murine-derived antibody to human PRLR as follows: diluting a recombinant human PRLR-ECD protein to 0.5 μg/mL with a coating solution (a phosphate coating buffer, pH 7.4), adding a solution to an enzyme-labeled plate with 100 μL/well, and coating the plate at 4° C. overnight. The plate was washed once with PBST. 300 μL/well of blocking solution (1% BSA-PBST) was added. The plate was incubated at 37° C. for 2 h and then washed three times with PBST. The purified antibody was diluted to 1 μg/mL with 1% BSA-PBST. After a solution was diluted with 1:3 gradient, the enzyme-labeled plate was added with 100 μL/well, and incubated at 37° C. for 1 h. The plate was washed with PBST 3 times. A HRP-labeled goat anti-mouse IgG secondary antibody (purchased from Abcam, item No.: ab6789) was added and incubate at 37° C. for 30 min. After the plate was washed 3 times with PBST, residual droplets were patted to be dry as much as possible with a blotting paper. 100 μL of TMB (purchased from KPL, item No.: 52-00-03) was added to each well, placed at room temperature (20±5° C.) and protected from light for 5 min. […] An OD value at 450 nm of an enzyme-labeled instrument was read to analyze the binding ability of the antibody to be tested to a target antigen PRLR-His.

[6] = target: T1, human PRLR on the cell surface (T47D …); test: cell-based or functional assay

EC50 [1]: 0.21 nM and 0.031 µg/mL
EC50 [2]: 0.0129 µg/mL and 0.09 nM
EC50 [3]: 0.297 µg/mL
B1: chimeric antibody SPGA02-ch260 (antibody, human IgG1, kappa, V domains shown)
VH: QVQLKESGPGLVAPSQSLSITCTVSGFSLTRNGVSWVRQPPGKGLEWLGIIWGDGSTNYHSALISRLSISKDNSKSQVFLKLNSLQTDDTATYYCAKEGLYYYGRYFDVWGAGTTVTVSS
VL: DIVMTQSHKFMSTSVGDRVSITCKASQDVGSAVAWYQQKPGQSPKVLIYWASTRHTGVPDRFTGSGSGTDFTLTISNVQSEDLADYFCQQYSNYPLTFGGGTKLEIRR
notes: Expressed in Expi293F cells; also called SPGA01-ch260

binding result [4]: binds
EC50 [1]: 0.026 µg/mL and 0.17 nM
EC50 [5]: 0.0209 µg/mL and 0.14 nM
B2: murine-derived anti-human PRLR monoclonal antibody SPGA02-260 (antibody, V domains shown)
VH: B1 VH
VL: DIVMTQSHKFMSTSVGDRVSITCKASQDVGSAVAWYQQKPGQSPKVLIYWASTRHTGVPDRFTGSGSGTDFTLTISNVQSEDLADYFCQQYSNYPLTFGGGTKLEIR
notes: Mouse monoclonal antibody purified from hybridoma supernatant by protein A; also called SPHA02-260

IC50 of inhibition of growth of BAF3-huPRLR cells (CCK8, 72 h) [6]: 8.28 ng/ml and 0.06 nM
EC50 [2]: 0.00898 µg/mL and 0.06 nM
B3: humanized monoclonal antibody SPGA02-hu260 (antibody, human IgG1, kappa, V domains shown)
VH: QVQLQESGPGLVKPSETLSLTCTVSGFSLTRNGVSWIRQPPGKGLEWVGVIWGDGSTNYNSAFMSRVTISVDTSKNQVSLKLSSVTAADTAVYYCAKEGLYYYGRYFDVWGQGTTVTVSS
VL: DIQMTQSPSSLSASVGDRVTITCRASQDVGSALAWYQQKPGKVPKLLIYWASTRHTGVPSRFSGSGSGTDFTLTISSLQPEDVATYYCQQYSNYPLTFGGGTKLEIKR
notes: Expressed in Expi-293F cells

— US20250129173A1 (SHENYANG SUNSHINE PHARMACEUTICAL, published 2025)
